By Kd is commonly meant the equilibrium constant for the complex coming apart. A high value points to lower affinity.

This data set addresses tFKBP*3R (UniProt P62942 2-108, F37V;M50R;E55R;T86R). The data set can be described thus: filter binding.

tFKBP*3R, sequence (P62942 2-108 F37V/M50R/E55R/T86R): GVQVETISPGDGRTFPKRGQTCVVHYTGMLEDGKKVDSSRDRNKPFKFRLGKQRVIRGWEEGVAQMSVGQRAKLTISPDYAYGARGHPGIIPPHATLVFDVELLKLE

B1: s23 U74C (structured_RNA)
RNA: GGGCAUUGGAUCGCAUUGUCAUUUCAUUGUGGCGGUGCAGUCAAAUGUGAUGCUUCGUUCAGUGACGGGAGGGCUGUGAGUGGUCUGAACGUAAGC
As to B1, the Kd was 0.0108 ± 0.0038 µM.

Values taken from publication PMC1240114.
